Laboratory results from article PMC2173431 (The Journal of Cell Biology, 2003).
Read-outs that look alike come from different tables or passages of the source.

B1: MBP-cT20 (domain or fragment, human, UniProt Q15388 25-145, looked up)
chain: DRKRRSDPNFKNRLRERRKKQKLAKERAGLSKLPDLKDAEAVQKFFLEEIQLGEELLAQGEYEKGVDHLTNAIAVCGQPQQLLQVLQQTLPPPVFQMLLTKLPTISQRIVSAQSLAEDDVE

Tests used:
[1] = biological target: T1, GST-AIP (human, UniProt O00170 1-330); assay: pull-down
T1 sequence (looked up): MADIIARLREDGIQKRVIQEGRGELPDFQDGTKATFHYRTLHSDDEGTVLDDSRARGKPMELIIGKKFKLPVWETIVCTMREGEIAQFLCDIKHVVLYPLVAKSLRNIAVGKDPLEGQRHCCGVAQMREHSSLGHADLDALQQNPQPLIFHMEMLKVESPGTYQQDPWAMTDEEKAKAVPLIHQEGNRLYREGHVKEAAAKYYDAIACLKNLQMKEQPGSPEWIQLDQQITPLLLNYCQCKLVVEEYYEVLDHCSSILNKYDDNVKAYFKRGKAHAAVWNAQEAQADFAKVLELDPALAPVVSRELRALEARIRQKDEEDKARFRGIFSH

[2] = biological target: T1, GST-AIP; assay: pull-down; remark: listed apart in the source

Binder | binding result [1] | binding result [2]
MLFNLRILLNNAAFRNGHNFMVRNFRCGQPLQ [synthetic presequence peptide of human pOTC] | binds | 
B1 |  | binds
QRIVSAQSLAEDDVE [Tom20C[131–145] peptide] | binds | 
